Source: patent publication US20170369571A1 (AbbVie / Abbott, published 2017)
Values belong to the molecule of their own block, whether it stands above or below them.

What was measured:
[1] = target: human SEZ6 on patient-derived NTX tumor cells (human) (UniProt Q53EL9); assay: flow cytometry, LU86 NTX tumor cells, dot plot CD324 against MOPC isotype control
[2] = target: human SEZ6 on patient-derived NTX tumor cells (human) (UniProt Q53EL9); assay: flow cytometry, LU64 NTX tumor cells, dot plot CD324 against MOPC isotype control, gate at 10^3
[3] = target: human SEZ6 on patient-derived NTX tumor cells (human) (UniProt Q53EL9); assay: flow cytometry, LU117 NTX tumor cells, dot plot CD324 against MOPC isotype control, gate at 10^3
[4] = target: human SEZ6 overexpressed on HEK-293T cells (human, UniProt Q53EL9 20-994); assay: cell-based or functional assay
[5] = target: T1, recombinant rat SEZ6 ECD with 9-Histidine tag (rat, UniProt Q7TSK2 20-922 (mouse entry)); assay: assay not given
T1 construct: also called rSEZ6-ECD-His; rat recombinant SEZ6-His
T1 chain: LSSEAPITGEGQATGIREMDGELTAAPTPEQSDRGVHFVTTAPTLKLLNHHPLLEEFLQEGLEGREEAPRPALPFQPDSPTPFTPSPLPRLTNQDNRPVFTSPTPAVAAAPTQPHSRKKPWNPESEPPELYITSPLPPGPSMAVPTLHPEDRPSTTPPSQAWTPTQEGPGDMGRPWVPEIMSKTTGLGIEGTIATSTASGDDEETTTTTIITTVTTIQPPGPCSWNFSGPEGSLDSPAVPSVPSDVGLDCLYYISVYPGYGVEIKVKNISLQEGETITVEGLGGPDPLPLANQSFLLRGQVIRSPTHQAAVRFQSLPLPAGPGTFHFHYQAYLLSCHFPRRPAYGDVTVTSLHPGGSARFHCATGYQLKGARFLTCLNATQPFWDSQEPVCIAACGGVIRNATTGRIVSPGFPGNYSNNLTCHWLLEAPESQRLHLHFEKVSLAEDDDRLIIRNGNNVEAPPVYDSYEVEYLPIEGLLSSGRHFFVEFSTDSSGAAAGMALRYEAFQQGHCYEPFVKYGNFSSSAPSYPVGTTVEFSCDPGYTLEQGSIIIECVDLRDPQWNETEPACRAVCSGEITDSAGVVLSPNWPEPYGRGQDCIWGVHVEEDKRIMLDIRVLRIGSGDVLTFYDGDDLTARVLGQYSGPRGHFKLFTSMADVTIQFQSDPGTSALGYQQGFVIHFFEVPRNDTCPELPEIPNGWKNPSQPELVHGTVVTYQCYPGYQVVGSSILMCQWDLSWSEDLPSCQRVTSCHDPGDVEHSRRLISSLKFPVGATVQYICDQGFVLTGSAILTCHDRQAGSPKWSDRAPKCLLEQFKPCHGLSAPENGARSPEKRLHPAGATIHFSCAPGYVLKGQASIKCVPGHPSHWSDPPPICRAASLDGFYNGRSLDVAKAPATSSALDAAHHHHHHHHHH

[6] = target: T2, cynomolgus SEZ6 extracellular domain displayed on yeast (cynomolgus, UniProt Q53EL9 23-925 (human entry)); assay: assay not given
T2 construct: also called cSEZ6; cynomolgus SEZ6 ECD
T2 chain: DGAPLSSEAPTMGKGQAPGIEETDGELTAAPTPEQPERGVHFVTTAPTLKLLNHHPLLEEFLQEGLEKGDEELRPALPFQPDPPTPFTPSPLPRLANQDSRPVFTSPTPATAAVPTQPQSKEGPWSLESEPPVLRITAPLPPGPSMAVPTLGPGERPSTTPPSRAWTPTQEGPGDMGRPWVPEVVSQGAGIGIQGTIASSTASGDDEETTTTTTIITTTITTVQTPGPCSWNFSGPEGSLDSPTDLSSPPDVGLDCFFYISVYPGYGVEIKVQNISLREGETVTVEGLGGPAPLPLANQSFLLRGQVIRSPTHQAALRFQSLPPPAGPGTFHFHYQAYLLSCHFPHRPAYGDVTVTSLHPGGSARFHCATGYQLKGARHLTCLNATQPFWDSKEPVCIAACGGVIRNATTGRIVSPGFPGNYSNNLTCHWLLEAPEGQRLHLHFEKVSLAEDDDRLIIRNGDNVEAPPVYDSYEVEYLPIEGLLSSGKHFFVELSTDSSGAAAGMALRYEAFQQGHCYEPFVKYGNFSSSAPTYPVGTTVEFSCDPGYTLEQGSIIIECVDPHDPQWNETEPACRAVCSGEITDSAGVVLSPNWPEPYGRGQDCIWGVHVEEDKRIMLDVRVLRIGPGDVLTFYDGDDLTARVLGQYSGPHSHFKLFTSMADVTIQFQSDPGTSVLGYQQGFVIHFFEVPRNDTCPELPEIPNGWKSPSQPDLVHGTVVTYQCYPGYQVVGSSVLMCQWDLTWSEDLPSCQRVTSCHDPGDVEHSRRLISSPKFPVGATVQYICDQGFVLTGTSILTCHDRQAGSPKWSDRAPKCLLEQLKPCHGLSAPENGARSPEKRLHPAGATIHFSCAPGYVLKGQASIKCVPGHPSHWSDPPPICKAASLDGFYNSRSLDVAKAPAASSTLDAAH

[7] = target: human SEZ6 on patient-derived NTX tumor cells (human) (UniProt Q53EL9); assay: flow cytometry on LU100 NTX tumor cells; FMO (MFI) of the same line 289
[8] = target: human SEZ6 on patient-derived NTX tumor cells (human) (UniProt Q53EL9); assay: flow cytometry, LU64 NTX tumor cells, dot plot CD324 against SC17.42, gate at 10^3

% of cells CD324+ and MOPC+ (upper right quadrant) [1]: 0.483% | % of cells CD324- and MOPC+ (lower right quadrant) [1]: 0.014% | % of cells CD324+ and MOPC+ (upper right quadrant) [2]: 0.597% | % of cells CD324+ and MOPC+ (upper right quadrant) [3]: 0.347% | % of cells CD324- and MOPC+ (lower right quadrant) [3]: 0.05%
Molecule: MOPC (antibody)

B1: hSC17.17-ADC1 (antibody, V domains shown)
VH: QVQLVQSGAEVKKPGASVKVSCKASGYTFTDYNMHWVRQAPGQGLEWMGEINPNIGGTGYNQKFKGRVTMTRDTSISTAYMELSRLRSDDTAVYYCARTYSYYSYEFAYWGQGTLVTVSS
VL: EIVLTQSPATLSLSPGERATLSCSASSSVSYMHWYQQKPGQAPRLLIYDTSKLPSGIPARFSGSGSGTDFTLTISSLEPEDFAVYYCQQWSSTPPTFGQGTKLEIK
modifications: PBD dimer (ADC1) through a maleimido linker on reduced Cys residues
in vitro cytotoxicity, IC50 [4]: 11 nM

binding result [5]: no binding | binding result [6]: no binding
B2: SC17.46 (antibody, V domains shown)
VH: QVQLQQPGAELVKPGASMKLSCKASGYTFTSYWINWVKQRPGQGLEWIGNIFPDTTTTNYNEKFKSKATLTVDTSSSTAYMQLSSLTSDDSAVYYCAREYYDGTYDAMDYWGQGTSVTVS
VL: SFVMTQTPKFLLVSAGDRVTITCKASQSVNNDVAWYQQKPGQSPKLLIYYASNRYTGVPDRFTGSGYGTDFTFTISTVQAEDLAVYFCQQDYSSPRTFGGGTKLEIK
notes: murine mAb

Tumor (MFI) [7]: 1400 | % of cells CD324+ and SC17.42+ (upper right quadrant) [8]: 27.7% | % of cells CD324- and SC17.42+ (lower right quadrant) [8]: 0.637%
B3: SC17.42 (antibody, from a related filing, V domains shown)
VH: DVKLVESGGGLVRPGGSLKLSCAASGFTFSRYTMSWVRQTPEKRLEWAATINSGGSNTYYPDSVKGRFTISRDNAKNTLFLQMSSLKSEDTAMYYCTNGNHWGQGTTLTVSS
VL: ENVLTQSPAIMSASPGEKVTMTCSASSSVNYMYWYQQKSSTSPKLWIYDTSKLTSGVPGRFSGSGSGNSYSLTISNMEAEDVATYYCFQGSGYPLTFGSGTKLEIK
